Drawing on US20200339680A1, this text covers MFI, fold over negative controls and fold over parental HEK293 for one molecule.

In test [1] the target is human TMEM106B (human) (UniProt Q9NUM4). Description: FACS U251.
Test [2] has the same target. Briefly: FACS, supernatant, hu-transfected HEK293.
The target is the same in test [3]. Briefly: FACS, transfected HEK293.
Test [4] has as its target mouse TMEM106B (mouse) (UniProt Q80X71). Briefly: FACS, transfected HEK293.
In test [5] the target is human TMEM106B (human) (UniProt Q9NUM4). Description: FACS HEK+huTMEM 10 ug/ml.
The target is the same in test [6]. Description: FACS HEK+huTMEM 0.1 ug/ml.
Test [7] has the same target. Briefly: FACS A549.
The target in test [8] is mouse TMEM106B (mouse) (UniProt Q80X71). Description: FACS Neuro2a.
For test [9], the target named is human TMEM106B (human) (UniProt Q9NUM4). Description: FACS A549 1 ug/ml.
Test [10] shares this target. Briefly: FACS HEK+huTMEM 0.1 ug/ml (2nd column so headed).
Test [11] has the same target. Description: FACS A549 10 ug/ml.
The target is the same in test [12]. Briefly: FACS HeLa.
Test [13] shares this target. Briefly: FACS HEK+huTMEM 1.0 ug/ml.

B1: TM-4 (antibody, V domains shown)
VH: EVQVQQSGPVLVKPGASVKMSCKASGYTFTDYYMNWVKQSHGKNLEWIGVINPYNGGTSYHQKFKGKATLTVDKSSSTAYMELNSLTSEDSAVYYCARAATVVAGFDYWGQGTTLTVSS
VL: QAVVTQESALTTSPGETVTLTCRSSTGAVTTSNYANWVQEKPDHLFTGLIGGTNNRAPGVPARFSGSLIGDKAALTITGAQTEDEAIYFCVLWYSNHLVFGGGTKLTVL
B1: the MFI in test [1] stood at 349 MFI; in [5], 846 MFI; in [6] it was 304 MFI; in test [7] it was 916 MFI; in test [8] it was 325 MFI; in test [9] it was 373 MFI. Further, the MFI is 282 MFI in test [10], 443 MFI in [11], 323 MFI in [12] and 415 MFI in test [13]. Moreover, the fold over negative controls in [2] was greater than 2 fold. In addition, the values for the fold over parental HEK293 in [3] and in test [4] were 1.13 fold and 1.97 fold, respectively.
